Results reported in the supplement of paper PMC10567573.

B1: PSD2 (parent)
chain: PLMGETQERERVLTHFSRRYCQCN

Variants of: B1
Assay: protein stability index of a GFP-peptide fusion (GPS, HEK-293T) (PSI 1-6); higher = more stable
Conditions: c terminus: a fixed tail appended
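Note: lentivirally expressed fusions sorted by FACS into six bins by GFP to DsRed ratio, PSI derived from sequencing read proportions per bin multiplied by bin number.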

Row | Variant | protein stability index
1 | PLMGETQERERVPTHFSRRYCQCN | 3.19
2 | PLMGETQERERVQTHFSRRYCQCN | 3.5
3 | PLMGETQERERVRTHFSRRYCQCN | 4.15
4 | PLMGETQERERVSTHFSRRYCQCN | 2.52
5 | PLMGETQERERVTTHFSRRYCQCN | 2.65
6 | PLMGETQERERVWTHFSRRYCQCN | 2.7
7 | PLMGETQERERVLAHFSRRYCQCN | 2.62
8 | PLMGETQERERVLDHFSRRYCQCN | 2.92
9 | PLMGETQERERVLEHFSRRYCQCN | 2.93
10 | PLMGETQERERVLFHFSRRYCQCN | 2.63
11 | PLMGETQERERVLGHFSRRYCQCN | 2.83
12 | PLMGETQERERVLHHFSRRYCQCN | 2.65
13 | PLMGETQERERVLIHFSRRYCQCN | 2.13
14 | PLMGETQERERVLLHFSRRYCQCN | 2.02
15 | PLMGETQERERVLMHFSRRYCQCN | 2.72
16 | PLMGETQERERVLNHFSRRYCQCN | 2.63
17 | PLMGETQERERVLPHFSRRYCQCN | 2.88
18 | PLMGETQERERVLQHFSRRYCQCN | 2.56
19 | PLMGETQERERVLRHFSRRYCQCN | 2.73
20 | PLMGETQERERVLSHFSRRYCQCN | 3.18
21 | PLMGETQERERVLVHFSRRYCQCN | 2.69
22 | PLMGETQERERVLYHFSRRYCQCN | 1.71
23 | PLMGETQERERVLTAFSRRYCQCN | 2.62
24 | PLMGETQERERVLTCFSRRYCQCN | 2.9

Row | Variant | protein stability index
25 | PLMGETQERERVLTDFSRRYCQCN | 3.15
26 | PLMGETQERERVLTEFSRRYCQCN | 4.15
27 | PLMGETQERERVLTFFSRRYCQCN | 1.47
28 | PLMGETQERERVLTGFSRRYCQCN | 3.07
29 | PLMGETQERERVLTIFSRRYCQCN | 2.32
30 | PLMGETQERERVLTKFSRRYCQCN | 3.41
31 | PLMGETQERERVLTLFSRRYCQCN | 2.7
32 | PLMGETQERERVLTMFSRRYCQCN | 2.56
33 | PLMGETQERERVLTNFSRRYCQCN | 3.02
34 | PLMGETQERERVLTPFSRRYCQCN | 2.6
35 | PLMGETQERERVLTQFSRRYCQCN | 1.99
36 | PLMGETQERERVLTRFSRRYCQCN | 2.74
37 | PLMGETQERERVLTSFSRRYCQCN | 3.18
38 | PLMGETQERERVLTTFSRRYCQCN | 3.03
39 | PLMGETQERERVLTVFSRRYCQCN | 2.31
40 | PLMGETQERERVLTWFSRRYCQCN | 1.2
41 | PLMGETQERERVLTYFSRRYCQCN | 2.44
42 | PLMGETQERERVLTHASRRYCQCN | 3.85
43 | PLMGETQERERVLTHCSRRYCQCN | 4.41
44 | PLMGETQERERVLTHDSRRYCQCN | 4.44
45 | PLMGETQERERVLTHGSRRYCQCN | 3.84
46 | PLMGETQERERVLTHHSRRYCQCN | 4.05
47 | PLMGETQERERVLTHISRRYCQCN | 2.67
48 | PLMGETQERERVLTHKSRRYCQCN | 3

Row | Variant | protein stability index
49 | PLMGETQERERVLTHLSRRYCQCN | 3.79
50 | PLMGETQERERVLTHMSRRYCQCN | 3.09
51 | PLMGETQERERVLTHNSRRYCQCN | 3.58
52 | PLMGETQERERVLTHPSRRYCQCN | 3.9
53 | PLMGETQERERVLTHQSRRYCQCN | 4.78
54 | PLMGETQERERVLTHRSRRYCQCN | 2.21
55 | PLMGETQERERVLTHSSRRYCQCN | 4.35
56 | PLMGETQERERVLTHTSRRYCQCN | 3.91
57 | PLMGETQERERVLTHVSRRYCQCN | 3
58 | PLMGETQERERVLTHWSRRYCQCN | 2.1
59 | PLMGETQERERVLTHYSRRYCQCN | 2.99
60 | PLMGETQERERVLTHFARRYCQCN | 2.11
61 | PLMGETQERERVLTHFCRRYCQCN | 4.84
62 | PLMGETQERERVLTHFDRRYCQCN | 3.37
63 | PLMGETQERERVLTHFFRRYCQCN | 1.68
64 | PLMGETQERERVLTHFGRRYCQCN | 3.85
65 | PLMGETQERERVLTHFHRRYCQCN | 3.2
66 | PLMGETQERERVLTHFIRRYCQCN | 1.49
67 | PLMGETQERERVLTHFKRRYCQCN | 2.95
68 | PLMGETQERERVLTHFLRRYCQCN | 1.99
69 | PLMGETQERERVLTHFMRRYCQCN | 2.51
70 | PLMGETQERERVLTHFNRRYCQCN | 3.15
71 | PLMGETQERERVLTHFPRRYCQCN | 3.18
72 | PLMGETQERERVLTHFQRRYCQCN | 2.97

Row | Variant | protein stability index
73 | PLMGETQERERVLTHFRRRYCQCN | 2.42
74 | PLMGETQERERVLTHFTRRYCQCN | 2.15
75 | PLMGETQERERVLTHFVRRYCQCN | 2.44
76 | PLMGETQERERVLTHFWRRYCQCN | 1.52
77 | PLMGETQERERVLTHFYRRYCQCN | 2.89
78 | PLMGETQERERVLTHFSARYCQCN | 3.49
79 | PLMGETQERERVLTHFSCRYCQCN | 1.77
80 | PLMGETQERERVLTHFSDRYCQCN | 4.01
81 | PLMGETQERERVLTHFSERYCQCN | 4.21
82 | PLMGETQERERVLTHFSFRYCQCN | 1.99
83 | PLMGETQERERVLTHFSGRYCQCN | 4.12
84 | PLMGETQERERVLTHFSHRYCQCN | 3.96
85 | PLMGETQERERVLTHFSIRYCQCN | 2.27
86 | PLMGETQERERVLTHFSKRYCQCN | 3.09
87 | PLMGETQERERVLTHFSLRYCQCN | 2.24
88 | PLMGETQERERVLTHFSMRYCQCN | 2.14
89 | PLMGETQERERVLTHFSNRYCQCN | 3.06
90 | PLMGETQERERVLTHFSPRYCQCN | 3.01
91 | PLMGETQERERVLTHFSQRYCQCN | 2.77
92 | PLMGETQERERVLTHFSSRYCQCN | 3.54
93 | PLMGETQERERVLTHFSTRYCQCN | 3.09
94 | PLMGETQERERVLTHFSVRYCQCN | 2.02
